From patent US20180057542A1 (University of Washington, published 2018)

T1: urea-expanded bacteriophage lambda capsid shell (bacteriophage lambda, UniProt P03713 1-341; P03710 23-533)
T1 construct: also called expanded capsid; expanded capsid lattice
T1 sequence 1: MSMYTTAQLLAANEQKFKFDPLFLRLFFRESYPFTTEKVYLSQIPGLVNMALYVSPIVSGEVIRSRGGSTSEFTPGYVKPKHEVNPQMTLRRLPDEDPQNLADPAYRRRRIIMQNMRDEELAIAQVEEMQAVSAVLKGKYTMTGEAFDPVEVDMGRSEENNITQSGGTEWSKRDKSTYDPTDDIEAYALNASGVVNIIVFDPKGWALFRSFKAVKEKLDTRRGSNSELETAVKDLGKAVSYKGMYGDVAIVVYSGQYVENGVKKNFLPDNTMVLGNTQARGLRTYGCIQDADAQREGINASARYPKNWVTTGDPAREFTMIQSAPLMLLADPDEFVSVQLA
T1 sequence 2: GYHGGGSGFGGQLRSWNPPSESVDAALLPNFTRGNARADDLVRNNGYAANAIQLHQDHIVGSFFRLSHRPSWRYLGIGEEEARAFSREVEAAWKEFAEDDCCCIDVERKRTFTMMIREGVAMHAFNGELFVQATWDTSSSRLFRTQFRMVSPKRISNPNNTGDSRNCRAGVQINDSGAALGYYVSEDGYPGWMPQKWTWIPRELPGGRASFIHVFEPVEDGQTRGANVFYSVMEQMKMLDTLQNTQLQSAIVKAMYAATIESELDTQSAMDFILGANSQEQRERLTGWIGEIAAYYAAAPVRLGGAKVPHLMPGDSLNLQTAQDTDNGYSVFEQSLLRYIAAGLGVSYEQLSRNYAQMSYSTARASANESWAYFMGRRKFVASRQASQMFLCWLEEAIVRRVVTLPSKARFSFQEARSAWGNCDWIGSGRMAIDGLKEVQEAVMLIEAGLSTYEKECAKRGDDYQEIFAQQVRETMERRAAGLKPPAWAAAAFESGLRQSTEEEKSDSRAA


Assays:
[1] = target: T1, urea-expanded bacteriophage lambda …; experiment: in vitro capsid decoration, SDS-PAGE of isolated decorated capsids
Concanavalin A = target: T2, Concanavalin A (UniProt P02866 30-281); experiment: agglutination assay (absorbance at 350 nm) of decorated capsids with Concanavalin A
T2 construct: Used at 1 uM in the agglutination assay; It recognises the mannose conjugated to gpD(S42C); also called Con A; ConA

[2] = target: T1, urea-expanded bacteriophage lambda …; experiment: SDS-PAGE of capsids decorated with gpD-WT alone and separated from unreacted protein

Binder	Surface Density (% relative to gpD) [1]	binding result (Concanavalin A)	ratio of major capsid protein (gpE) to gpD-WT in the decorated particles [2]
wild-type bacteriophage lambda gpD decoration protein (other, Monomer in solution; adds to the expanded capsid as trimer spikes at the 140 three-fold axes (420 copies per shell); also called gpD-WT; gpD-wt) MTSKETFTHYQPQGNSDPAHTATAPGGLSAKAPAMTPLMLDTSSRKLVAWDGTTDGAAVGILAVAADQTSTTLTFYKSGTFRYEDVLWPEAASDETKKRTAFAGTAISIV	100 % relative to gpD	no binding (tested: 1 µM ConA, 1 µM gpD equivalent)	~1 ratio gpE:gpD-WT
gpD(S42C) (other) MTSKETFTHYQPQGNSDPAHTATAPGGLSAKAPAMTPLMLDTCSRKLVAWDGTTDGAAVGILAVAADQTSTTLTFYKSGTFRYEDVLWPEAASDETKKRTAFAGTAISIV	90 % relative to gpD	no binding (tested: 1 µM ConA, 1 µM gpD equivalent)	
gpD(S42C::sMannose) (other, 6'-maleimidohexanamido-polyethyleneglycol mannoside (sMannose) on Cys42 (numbering without the N-terminal methionine), The presence of the H6 tag is therefore not certain; also called gpD-mannose; gpD glycoprotein) HHHHHHMTSKETFTHYQPQGNSDPAHTATAPGGLSAKAPAMTPLMLDTCSRKLVAWDGTTDGAAVGILAVAADQTSTTLTFYKSGTFRYEDVLWPEAASDETKKRTAFAGTAISIV	82 % relative to gpD		
H6-gpD-GFP (other, HIS-tagged fusion of an N-terminal gpD domain and a C-terminal GFP domain; also called gpD-Green Fluorescent Protein; GFP-tagged gpD) HHHHHHMTSKETFTHYQPQGNSDPAHTATAPGGLSAKAPAMTPLMLDTSSRKLVAWDGTTDGAAVGILAVAADQTSTTLTFYKSGTFRYEDVLWPEAASDETKKRTAFAGTAISIV	77 % relative to gpD		
